{"source": "paper PMC10838290", "about": "(2024)", "binders": {"B1": {"name": "HIS-tagged JUN (truncated form 1-241aa) (protein)", "chain": "MTAKMETTFYDDALNASFLPSESGPYGYSNPKILKQSMTLNLADPVGSLKPHLRAKNSDLLTSPDVGLLKLASPELERLIIQSSNGHITTTPTPTQFLCPKNVTDEQEGFAEGFVRALAELHSQNTLPSVTSAAQPVNGAGMVAPAVASVAGGSGSGGFSASLHSEPPVYANLSNFNPGALSSGGGAPSYGAAGLAFPAQPQQQQQPPHHLPQQMPVQHPRLQALKEEPQTVPEMPGETPP"}}, "target": "GST-tagged ANKRD1 recombinant protein (Homo sapiens (Human), UniProt Q15327)", "sequence (Q15327 whole entry)": "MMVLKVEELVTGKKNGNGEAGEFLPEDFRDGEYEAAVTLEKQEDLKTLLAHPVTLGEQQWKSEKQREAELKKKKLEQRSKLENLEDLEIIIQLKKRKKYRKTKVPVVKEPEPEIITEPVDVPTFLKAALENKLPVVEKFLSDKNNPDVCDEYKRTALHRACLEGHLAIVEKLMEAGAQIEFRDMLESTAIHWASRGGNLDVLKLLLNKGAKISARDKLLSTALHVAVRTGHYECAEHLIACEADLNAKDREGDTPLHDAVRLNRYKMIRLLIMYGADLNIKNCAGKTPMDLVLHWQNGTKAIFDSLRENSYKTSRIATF", "assay": "GST pulldown with western blot"}
{"binder": "B1", "values": [{"measurement": "binding result", "result": "no binding"}]}
